Results reported in patent US12449421 (SICHUAN CANCER HOSPITAL, dated 2025).

T1: recombinant human CD79B extracellular domain (amino acids 29-159), huCD79B (human, UniProt P40259 29-159)
T1 construct: Immunogen and SPR analyte; No tag or fusion partner is stated; also called human CD79B antigen; CD79B antigen
T1 sequence: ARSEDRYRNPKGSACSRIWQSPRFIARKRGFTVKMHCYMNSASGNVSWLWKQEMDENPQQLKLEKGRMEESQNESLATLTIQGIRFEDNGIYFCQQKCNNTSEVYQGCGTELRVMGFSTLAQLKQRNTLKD


Legend:
[1] = biological target: CD79B protein as expressed in Daudi cells and diffuse large B-cell lymphoma tissue (UniProt P40259); assay: immunohistochemistry on 69 diffuse large B-cell lymphoma tissue cases; share of cases stained positive
[2] = biological target: recombinant human CD79B extracellular domain (amino acids 29-159), huCD79B (human) (UniProt P40259); assay: Biacore SPR, antibody captured on Protein A chip, huCD79B as analyte, 1:1 kinetic model
[3] = biological target: T1, recombinant human CD79B extracellular …; assay: as above
Procedure: The ability of the antibody to bind to the antigen is characterized using Biacore™ Surface Plasmon Resonance (SPR). Specifically, a Protein A chip was used (with channel 1 as the reference channel and channel 2 as the ligand channel). The antibody was immobilized as the ligand in channel 2 of the Protein A chip at a concentration of 10 µg/ml, with an association time of 30 seconds and a flow rate of […].
In this embodiment, the analyte was flowed through both channel 1 and channel 2, with an association time of 60 seconds, a dissociation time of 90 seconds, and a flow rate of 30 µl/min. After the analyte injection was completed, the chip surface was regenerated using glycine buffer with a pH of 1.5. The ligand was immobilized before each analyte injection, and the chip surface was regenerated with the regeneration solution after the analyte injection was completed.
The affinity of the CD79B antibody for human CD79B antigen at the different concentrations mentioned above was determined using Biacore™ SPR. The corresponding analysis software was used to analyze the binding and dissociation with a 1:1 kinetic model.

Pos. Rate (share of IHC-positive cases) [1] [%] | Kd [2] [nM] | koff [2] [s⁻¹] | kon [2] [M⁻¹ s⁻¹] | Kd [3] [nM] | koff [3] [s⁻¹] | kon [3] [M⁻¹ s⁻¹] | Molecule
100 | 19.3 | 0.00547 | 283000 |  |  |  | commercially available CD79B antibody (Abcam, EPR6861)
 |  |  |  | 0.877 | 0.000775 | 844000 | LBP2-CD79B (anti-CD79B recombinant rabbit monoclonal antibody) (antibody, V domains shown, the light chain variable region begins QVLTQTP; also called Anti-CD79B Protein Monoclonal Antibody; LBP2-CD79B monoclonal antibody) VH: QSLEESGGRLVTPGGSLTLTCTVSGIDLSTNVMRWVRQAPGKGLEWIGSMLISGNIYYASWAKGRLTISKTSSTTVDLKMTSLTAADTATYFCTRGRLWGQGTLVTVSS VL: AQVLTQTPSSVSAAVGGTVTINCQSSQSVWANNYLAWYQQKPGQPPKILIASASTLASGVSSRFKGSGSGTQFTLTISDVQCDDAATYYCLGSYDCSSADCNAFGGGTEVVVKG
